Measurements reported in article PMC7815789, “Degradation of complex arabinoxylans by human colonic Bacteroidetes” (Nature Communications, 2021).

Target: BACINT_01039-CE1 (carbohydrate esterase family 1, acetyl-xylan esterase) (Bacteroides intestinalis DSM 17393) (UniProt B3C975)
Test: crystal structure; seleno-methionine-labeled BACINT_01039-CE1, 20 mg/mL in 50 mM Tris, 150 mM NaCl pH 7.5; hanging drop; 10 mM ammonium sulfate, 80 mM sodium cacodylate pH 6.5, 21% PEG4000; two molecules in the asymmetric unit as a dimer

stoichiometry N: 2
Substance: BACINT_01039-CE1 (carbohydrate esterase family 1, acetyl-xylan esterase) (from UniProt B3C975 1-382) (enzyme)
